In PMC4277623, “Synthesis and Preliminary Evaluation of a New ^99mTc Labeled Substance P Analogue as a Potential Tumor Imaging Agent” (Iranian Journal of Pharmaceutical Research : IJPR, 2015):
Where two headings read alike, the source gives them in different places.

Columns and labels:
[1] = Stability in aqueous solution; type: physicochemical; conditions: reaction mixture at 25 °C up to 24 h; sampled 1, 4, 24 h; RP-HPLC
Protocol: The stability of radiolabeled peptide in aqueous solution was evaluated by incubation of the reaction mixture at room temperature (25 °C)up to 24 h.Stability in human serum at 37 °C was tested in parallel after adding 100 μL of reaction mixture to 1ml of fresh human serum. The incubation mixtures were sampled at 1, 4, and 24 h time points. Serum samples (100-200 μL) were treated with ethanol (200-400 μL) and centrifuged (4000 g, 5 min, 4 °C) to precipitate the serum proteins. 20-100 μL aliquots from the supernatant were separated to assess the degradation of ^99mTc labeled peptide by RP-HPLC (method I). 100 μL aliquots from the 25 °C incubated mixture were passed through a […] to eliminate possible ^99mTc colloids and then, 5-20 μL of filtrate were analyzed by RP-HPLC as well.

[2] = Log P, octanol/PBS partition; type: physicochemical; conditions: shake-flask octanol/PBS, vortexed 10 min, γ-counter, three aliquots per layer averaged
Protocol: In a 2 mL microtube, 0.5 mL of the^99mTc labeled peptides in PBS was mixed with 0.5 mL of octanol. The tube was vigorously vortexed over a period of 10 min and centrifuged at 4000g for 5 min. Three aliquots of 100 μL were sampled from eachlayer and counted in theγ counter. The averaged activities from the aqueous and the octanol layers were used to calculate the log p-values. The octanol-to-water partition coefficient (Po/w) of the radiolabeled peptides was calculated by dividing the counts of the octanol phase by that of the aqueous phase.

[3] = test system: U373MG cells; assay: Internalization and surface binding in U373MG cells; type: cell-based, human; conditions: for total cell uptake: 37 °C, 2.5 pmol peptide per well, % of total activity per well, triplicates; for receptor specific cell uptake: total minus nonspecific (10000 fold excess unlabeled SP)
Protocol: All the main cell studies were performed on U373MG human Glioblastoma cell lines. Cells were cultured in DMEM was supplemented with L-glutamine, antibiotics (penicillin, streptomycine, gentamycine) and10% FBS. They were grown in culture until a sufficient number of cells were available. At proper times, cells were detached by trypsin-EDTA (0.25% and 0.02%) from the culture flask and diluted with fresh medium to start a new culture or the cell line tests.
Internalization of the ^99mTclabeled HYNIC-Tyr^8-Met(O)^11-SP was studied as previously described method([32], [33]) with some modifications. In brief, newly detached U373MG cells were seeded in six-well plates 12 h before the experiment. Their culture medium was replaced by 1.2 mL of previously warmed fresh medium and cells were allowed to adjust to the medium for 1 h at 37 °C, 5% CO2. In order to determine nonspecific internalization, one line of wells per plate was incubated with 10000 fold excess of unlabeled SP (25 nmol peptide in 150 μL PBS per well) at 37°C/5% CO2 for 15 min to block NK1Rs. Then about 150kBq (2.5 pmol peptide) in 150 μL diluted solution of freshly radiolabeled peptide was added to each of the wells and were incubated (in triplicates) for 0.5, 1, 2 and 4 h at 37 °C/5% CO2, respectively. As the final volume of blocked wells was 1.5 mL, the content volume of unblocked wells was adjusted to 1.5 mL by adding 150 μL PBS per well. At each time point, radioactive media were aspirated and wells were washed twice with cold PBS (1x, pH 7.2) to remove free radio peptides. After that, cells were treated with 1 mLGly buffer (0.2M, pH adjusted to 2.8 with 1 M HCl) at room temperature for 5 min (twice) to remove cell-surface bound radio peptide. Finally, the cells were detached from the plates by three steps incubation with 1N NaOH at room temperature for 5 min to determine the internalized radio peptide. All consequent fractions were measured with a NaI γ-counter and results were expressed as percentage of total activity per well (free + cell-surface bound + internalized). Nonspecific accumulations were subtracted from totals to determine the specific accumulations.

[4] = Biodistribution in normal mice; type: in vivo; conditions: for tissue uptake at 1 h / tissue uptake at 4 h / tissue uptake at 24 h: male, mouse, iv, total radioactivity
Protocol: Male albino mice in a weight range of18-24 g were used for normal mice treatments and malenude mice (6 to 8 weeks old) were used for in-vivo tumor treatments. The mice were housed at controlled room temperature (25 °C) in a 12 h light/12 h dark schedule. They were kept in standard cages with free access to food and water except during the experiments. The nude mice were grown and kept in isolated sterile condition. All animal experiments were carried out in compliance with our institutional ethical guidelines.
Freshly labeled ^99mTc-HYNIC-Tyr^8-Met(O)^11-SP (purity>98%) was diluted to 3.3 nmol/mL with normal saline and a dose of 800 µCi/ 330 pmol in 100 µL was injected to each mouse via the tail vein. Also agroup of three animals (blocked group) were given150 µg of SP in 50 µL salineco-injected with the radiopeptide to determine the non-specific biodistribution of the radiopeptide by blocking the receptor-positive organs. After 1, 4, and 24 h post injection the mice in groups of three animals were sacrificed and organs of interest were excised. All organs and tissues were weighed, and the radioactivity was determined by gamma counter. Results were expressed as percentage of injected dose per gram (% ID/g) of tissue.

Compound: CC(C)C[C@H](NC(=O)CNC(=O)[C@H](Cc1ccc(O)cc1)NC(=O)[C@H](Cc1ccccc1)NC(=O)[C@H](CCC(N)=O)NC(=O)[C@H](CCC(N)=O)NC(=O)[C@@H]1CCCN1C(=O)[C@H](CCCCN)NC(=O)[C@@H]1CCCN1C(=O)[C@H](CCCNC(=N)N)NC(=O)c1ccc(NN)nc1)C(=O)N[C@@H](CC[S+](C)[O-])C(N)=O (stereo partly shown) [^99mTc-HYNIC-Tyr^8-Met(O)^11-SP, metal not drawn]
- stability in aqueous solution [1]: good stability
- log P [2]: -3.75
- total cell uptake ([3]; 0.5 h): 2.86 ± 0.10%
- receptor specific cell uptake ([3]; 0.5 h): 1.71%
- total cell uptake ([3]; 4 h): 4.91 ± 0.22%
- receptor specific cell uptake ([3]; 4 h): 2.98%
- ratio of specific uptake to total uptake ([3]; over 0.5-4 h): 60.21 ± 1.19%
- %ID/g Blood ([4]; Blood, 1 h p.i., i.v., mean ± SEM, n=3): 1.02±0.16 %ID/g
- %ID/g Blood ([4]; Blood, 4 h p.i., i.v., mean ± SEM, n=3): 0.36±0.03 %ID/g
- D% Blood ([4]; Blood, decreased percent of %ID/g between 1 h and 4 h): 65%
- %ID/g Bone ([4]; Bone, 1 h p.i., i.v., mean ± SEM, n=3): 0.44±0.03 %ID/g
- D% Bone ([4]; Bone, decreased percent of %ID/g between 1 h and 4 h): 55%
- D% Heart ([4]; Heart, decreased percent of %ID/g between 1 h and 4 h): 68%
- D% Kidneys ([4]; Kidneys, decreased percent of %ID/g between 1 h and 4 h): 35%
- %ID/g L. intestine ([4]; L. intestine, 1 h p.i., i.v., mean ± SEM, n=3): 1.14±0.09 %ID/g
- %ID/g L. intestine ([4]; L. intestine, 4 h p.i., i.v., mean ± SEM, n=3): 1.33±0.28 %ID/g
- %ID/g L. intestine ([4]; L. intestine, 24 h p.i., i.v., mean ± SEM, n=3): 0.37±0.06 %ID/g
- D% L. intestine ([4]; L. intestine, decreased percent of %ID/g between 1 h and 4 h): -17%
- %ID/g Liver ([4]; Liver, 1 h p.i., i.v., mean ± SEM, n=3): 0.58±0.04 %ID/g
- %ID/g Liver ([4]; Liver, 4 h p.i., i.v., mean ± SEM, n=3): 0.38±0.05 %ID/g
- %ID/g Liver ([4]; Liver, 24 h p.i., i.v., mean ± SEM, n=3): 0.16±0.02 %ID/g
- D% Liver ([4]; Liver, decreased percent of %ID/g between 1 h and 4 h): 34%
- %ID/g Lung ([4]; Lung, 1 h p.i., i.v., mean ± SEM, n=3): 0.94±0.19 %ID/g
- %ID/g Lung ([4]; Lung, 4 h p.i., i.v., mean ± SEM, n=3): 0.33±0.02 %ID/g
- %ID/g Lung ([4]; Lung, 24 h p.i., i.v., mean ± SEM, n=3): 0.17±0.04 %ID/g
- D% Lung ([4]; Lung, decreased percent of %ID/g between 1 h and 4 h): 65%
- %ID/g Muscle ([4]; Muscle, 1 h p.i., i.v., mean ± SEM, n=3): 0.32±0.07 %ID/g
- D% Muscle ([4]; Muscle, decreased percent of %ID/g between 1 h and 4 h): 72%
- %ID/g S. intestine ([4]; S. intestine, 1 h p.i., i.v., mean ± SEM, n=3): 2.13±0.17 %ID/g
- %ID/g S. intestine ([4]; S. intestine, 4 h p.i., i.v., mean ± SEM, n=3): 0.89±0.21 %ID/g
- %ID/g S. intestine ([4]; S. intestine, 24 h p.i., i.v., mean ± SEM, n=3): 0.24±0.04 %ID/g
- D% S. intestine ([4]; S. intestine, decreased percent of %ID/g between 1 h and 4 h): 58%
- %ID/g Salivary G. ([4]; Salivary G., 1 h p.i., i.v., mean ± SEM, n=3): 0.61±0.05 %ID/g
- D% Salivary G. ([4]; Salivary G., decreased percent of %ID/g between 1 h and 4 h): 57%
- D% Spleen ([4]; Spleen, decreased percent of %ID/g between 1 h and 4 h): 30%
- D% Stomach ([4]; Stomach, decreased percent of %ID/g between 1 h and 4 h): 75%
- tissue uptake at 1 h ([4]; albino, 330 pmol per mouse, Stomach, 1 h p.i., i.v., mean ± SEM, n=3, read-out: %ID/g Stomach): 1.57 ± 0.13 %ID/g
- tissue uptake at 4 h ([4]; albino, 330 pmol per mouse, Stomach, 4 h p.i., i.v., mean ± SEM, n=3, read-out: %ID/g Stomach): 0.39 ± 0.06 %ID/g
- tissue uptake at 24 h ([4]; albino, 330 pmol per mouse, Stomach, 24 h p.i., i.v., mean ± SEM, n=3, read-out: %ID/g Stomach): 0.15 ± 0.01 %ID/g
- tissue uptake at 4 h ([4]; albino, salivary gland, 330 pmol per mouse, Salivary G., 4 h p.i., i.v., mean ± SEM, n=3, read-out: %ID/g Salivary G.): 0.26 ± 0.02 %ID/g
- tissue uptake at 24 h ([4]; albino, salivary gland, 330 pmol per mouse, Salivary G., 24 h p.i., i.v., mean ± SEM, n=3, read-out: %ID/g Salivary G.): 0.2 ± 0.02 %ID/g
- tissue uptake at 24 h ([4]; 800 uCi (330 pmol) per mouse, Blood, 24 h p.i., i.v., mean ± SEM, n=3, read-out: %ID/g Blood): 0.14 ± 0.02 %ID/g
- tissue uptake at 4 h ([4]; 800 uCi (330 pmol) per mouse, Bone, 4 h p.i., i.v., mean ± SEM, n=3, read-out: %ID/g Bone): 0.2 ± 0.02 %ID/g
- tissue uptake at 24 h ([4]; 800 uCi (330 pmol) per mouse, Bone, 24 h p.i., i.v., mean ± SEM, n=3, read-out: %ID/g Bone): 0.07 ± 0.03 %ID/g
- tissue uptake at 1 h ([4]; 800 uCi (330 pmol) per mouse, Heart, 1 h p.i., i.v., mean ± SEM, n=3, read-out: %ID/g Heart): 0.55 ± 0.14 %ID/g
- tissue uptake at 4 h ([4]; 800 uCi (330 pmol) per mouse, Heart, 4 h p.i., i.v., mean ± SEM, n=3, read-out: %ID/g Heart): 0.17 ± 0.01 %ID/g
- tissue uptake at 24 h ([4]; 800 uCi (330 pmol) per mouse, Heart, 24 h p.i., i.v., mean ± SEM, n=3, read-out: %ID/g Heart): 0.06 ± 0.04 %ID/g
- tissue uptake at 1 h ([4]; 800 uCi (330 pmol) per mouse, Kidneys, 1 h p.i., i.v., mean ± SEM, n=3, read-out: %ID/g Kidneys): 21.2 ± 0.7 %ID/g
- tissue uptake at 4 h ([4]; 800 uCi (330 pmol) per mouse, Kidneys, 4 h p.i., i.v., mean ± SEM, n=3, read-out: %ID/g Kidneys): 13.8 ± 1.96 %ID/g
- tissue uptake at 24 h ([4]; 800 uCi (330 pmol) per mouse, Kidneys, 24 h p.i., i.v., mean ± SEM, n=3, read-out: %ID/g Kidneys): 5.47 ± 0.56 %ID/g
- tissue uptake at 4 h ([4]; 800 uCi (330 pmol) per mouse, Muscle, 4 h p.i., i.v., mean ± SEM, n=3, read-out: %ID/g Muscle): 0.09 ± 0.03 %ID/g
- tissue uptake at 24 h ([4]; 800 uCi (330 pmol) per mouse, Muscle, 24 h p.i., i.v., mean ± SEM, n=3, read-out: %ID/g Muscle): 0.04 ± 0.02 %ID/g
- tissue uptake at 1 h ([4]; 800 uCi (330 pmol) per mouse, Spleen, 1 h p.i., i.v., mean ± SEM, n=3, read-out: %ID/g Spleen): 0.4 ± 0.09 %ID/g
- tissue uptake at 4 h ([4]; 800 uCi (330 pmol) per mouse, Spleen, 4 h p.i., i.v., mean ± SEM, n=3, read-out: %ID/g Spleen): 0.28 ± 0.06 %ID/g
- tissue uptake at 24 h ([4]; 800 uCi (330 pmol) per mouse, Spleen, 24 h p.i., i.v., mean ± SEM, n=3, read-out: %ID/g Spleen): 0.13 ± 0.08 %ID/g
